The source of these data is patent US20110091994A1, “Methods for Screening Compounds for Treating and/or Preventing an Hepatitis C Virus Infection” (priority 2008, published 2011).

Read-outs that look alike come from different tables or passages of the source.

The target in test [1] is T1, HCV ORFs (Gal4-DB fusions) (Hepatitis C virus genotype 1b, UniProt Q9WMX2).
T1 construct: expressed in transfected cells; host or cells: Saccharomyces cerevisiae MAV203 (IMAP1) / AH109 (IMAP2)
In kind it is binding, HCV genotype 1b, isolate con1. The settings on record: human protein as prey.

For another test, the target named is T2, HCV proteins (Hepatitis C virus genotype 1b, UniProt Q9WMX2).
T2 construct: expressed in transfected cells
The experiment in a line: Validation by Y2H pairwise matrices.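 Note: yeast two-hybrid pairwise tests of interactions first found in Y2H screens of HCV bait proteins against human cDNA libraries.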 The format is binding.

In test [2] the test system is HCV ORFs (Gal4-DB fusions). The format is binding, HCV genotype 1b, isolate con1. The settings on record: human protein listed by gene symbol; the value names the HCV protein it interacts with.
The mark [3] stands for this setting: validation of interaction with HCV protein NS3.
Setting [4] is: interaction with HCV protein p7.
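Throughout, for IMAP Y2H IMAP1 (number of IST): yeast two-hybrid screens using HCV genotype 1b proteins fused to Gal4-DB as baits against prey cDNA libraries from human spleen and foetal brain, IMAP1 via transformation and IMAP2 via mating.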
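Throughout, for Interaction with viral protein: yeast two-hybrid screens using HCV genotype 1b proteins fused to Gal4-DB as baits against prey cDNA libraries from human spleen and foetal brain, IMAP1 via transformation and IMAP2 via mating.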

B1: USP19 (protein, UniProt O94966 1-1318, looked up)
Ubiquitin carboxyl-terminal …: MSGGASATGPRRGPPGLEDTTSKKKQKDRANQESKDGDPRKETGSRYVAQAGLEPLASGDPSASASHAAGITGSRHRTRLFFPSSSGSASTPQEEQTKEGACEDPHDLLATPTPELLLDWRQSAEEVIVKLRVGVGPLQLEDVDAAFTDTDCVVRFAGGQQWGGVFYAEIKSSCAKVQTRKGSLLHLTLPKKVPMLTWPSLLVEADEQLCIPPLNSQTCLLGSEENLAPLAGEKAVPPGNDPVSPAMVRSRNPGKDDCAKEEMAVAADAATLVDEPESMVNLAFVKNDSYEKGPDSVVVHVYVKEICRDTSRVLFREQDFTLIFQTRDGNFLRLHPGCGPHTTFRWQVKLRNLIEPEQCTFCFTASRIDICLRKRQSQRWGGLEAPAARVGGAKVAVPTGPTPLDSTPPGGAPHPLTGQEEARAVEKDKSKARSEDTGLDSVATRTPMEHVTPKPETHLASPKPTCMVPPMPHSPVSGDSVEEEEEEEKKVCLPGFTGLVNLGNTCFMNSVIQSLSNTRELRDFFHDRSFEAEINYNNPLGTGGRLAIGFAVLLRALWKGTHHAFQPSKLKAIVASKASQFTGYAQHDAQEFMAFLLDGLHEDLNRIQNKPYTETVDSDGRPDEVVAEEAWQRHKMRNDSFIVDLFQGQYKSKLVCPVCAKVSITFDPFLYLPVPLPQKQKVLPVFYFAREPHSKPIKFLVSVSKENSTASEVLDSLSQSVHVKPENLRLAEVIKNRFHRVFLPSHSLDTVSPSDTLLCFELLSSELAKERVVVLEVQQRPQVPSVPISKCAACQRKQQSEDEKLKRCTRCYRVGYCNQLCQKTHWPDHKGLCRPENIGYPFLVSVPASRLTYARLAQLLEGYARYSVSVFQPPFQPGRMALESQSPGCTTLLSTGSLEAGDSERDPIQPPELQLVTPMAEGDTGLPRVWAAPDRGPVPSTSGISSEMLASGPIEVGSLPAGERVSRPEAAVPGYQHPSEAMNAHTPQFFIYKIDSSNREQRLEDKGDTPLELGDDCSLALVWRNNERLQEFVLVASKELECAEDPGSAGEAARAGHFTLDQCLNLFTRPEVLAPEEAWYCPQCKQHREASKQLLLWRLPNVLIVQLKRFSFRSFIWRDKINDLVEFPVRNLDLSKFCIGQKEEQLPSYDLYAVINHYGGMIGGHYTACARLPNDRSSQRSDVGWRLFDDSTVTTVDESQVVTRYAYVLFYRRRNSPVERPPRAGHSEHHPDLGPAAEAAASQASRIWQELEAEEEPVPEGSGPLGPWGPQDWVGPLPRGPTTPDEGCLRYFVLGTVAALVALVLNVFYPLVSQSRWR
As for B1, in test [1] (HCV protein NS5A as bait), the “IMAP Y2H IMAP1 (number of IST)” value is given as 3. Further, the Y2H matrices entry with HCV proteins (interaction with HCV protein NS5A) is given as “+”.

B2: CBY1 (protein, UniProt Q9Y3M2 1-126, looked up)
Protein chibby homolog 1: MPFFGNTFSPKKTPPRKSASLSNLHSLDRSTREVELGLEYGSPTMNLAGQSLKFENGQWIAETGVSGGVDRREVQRLRRRNQQLEEENNLLRLKVDILLDMLSESTAESHLMEKELDELRISRKRK
B2: the “IMAP Y2H IMAP1 (number of IST)” value in test [1] (HCV protein NS3 as bait) is listed as 2. Further, the “Interaction with viral protein” value in test [2] is “NS3”. For the same molecule, the Y2H matrices result with HCV proteins (setting [3]) is recorded as “+”.

B3: LMNB1 (protein, UniProt P20700 2-583, looked up)
Lamin-B1: ATATPVPPRMGSRAGGPTTPLSPTRLSRLQEKEELRELNDRLAVYIDKVRSLETENSALQLQVTEREEVRGRELTGLKALYETELADARRALDDTARERAKLQIELGKCKAEHDQLLLNYAKKESDLNGAQIKLREYEAALNSKDAALATALGDKKSLEGDLEDLKDQIAQLEASLAAAKKQLADETLLKVDLENRCQSLTEDLEFRKSMYEEEINETRRKHETRLVEVDSGRQIEYEYKLAQALHEMREQHDAQVRLYKEELEQTYHAKLENARLSSEMNTSTVNSAREELMESRMRIESLSSQLSNLQKESRACLERIQELEDLLAKEKDNSRRMLTDKEREMAEIRDQMQQQLNDYEQLLDVKLALDMEISAYRKLLEGEEERLKLSPSPSSRVTVSRASSSRSVRTTRGKRKRVDVEESEASSSVSISHSASATGNVCIEEIDVDGKFIRLKNTSEQDQPMGGWEMIRKIGDTSVSYKYTSRYVLKAGQTVTIWAANAGVTASPPTDLIWKNQNSWGTGEDVKVILKNSQGEEVAQRSTVFKTTIPEEEEEEEEAAGVVVEEELFHQQGTPRASNRSC
For the molecule B3, the “IMAP Y2H IMAP1 (number of IST)” value in test [1] (HCV protein p7 as bait) stood at 1. Further, the Y2H matrices entry with HCV proteins (setting [4]) is on record as “+”.

B4: CEP68 (protein, UniProt Q76N32 1-757, looked up)
Centrosomal protein of 68 kDa: MALGEEKAEAEASEDTKAQSYGRGSCRERELDIPGPMSGEQPPRLEAEGGLISPVWGAEGIPAPTCWIGTDPGGPSRAHQPQASDANREPVAERSEPALSGLPPATMGSGDLLLSGESQVEKTKLSSSEEFPQTLSLPRTTTICSGHDADTEDDPSLADLPQALDLSQQPHSSGLSCLSQWKSVLSPGSAAQPSSCSISASSTGSSLQGHQERAEPRGGSLAKVSSSLEPVVPQEPSSVVGLGPRPQWSPQPVFSGGDASGLGRRRLSFQAEYWACVLPDSLPPSPDRHSPLWNPNKEYEDLLDYTYPLRPGPQLPKHLDSRVPADPVLQDSGVDLDSFSVSPASTLKSPTNVSPNCPPAEATALPFSGPREPSLKQWPSRVPQKQGGMGLASWSQLASTPRAPGSRDARWERREPALRGAKDRLTIGKHLDMGSPQLRTRDRGWPSPRPEREKRTSQSARRPTCTESRWKSEEEVESDDEYLALPARLTQVSSLVSYLGSISTLVTLPTGDIKGQSPLEVSDSDGPASFPSSSSQSQLPPGAALQGSGDPEGQNPCFLRSFVRAHDSAGEGSLGSSQALGVSSGLLKTRPSLPARLDRWPFSDPDVEGQLPRKGGEQGKESLVQCVKTFCCQLEELICWLYNVADVTDHGTAARSNLTSLKSSLQLYRQFKKDIDEHQSLTESVLQKGEILLQCLLENTPVLEDVLGRIAKQSGELESHADRLYDSILASLDMLAGCTLIPDKKPMAAMEHPCEGV
As for B4, in test [1] (HCV protein NS5B as bait), the “IMAP Y2H IMAP1 (number of IST)” value is 1. Also, the Y2H matrices result with HCV proteins (interaction with HCV protein NS5B) was “+”.

B5: CCDC52 (protein, UniProt Q8N0Z3 1-855, looked up)
Spindle and …: MSFVRVNRCGPRVGVRKTPKVKKKKTSVKQEWDNTVTDLTVHRATPEDLVRRHEIHKSKNRALVHWELQEKALKRKWRKQKPETLNLEKRRLSIMKEILSDQYQMQDVLEKSDHLIAAAKELFPRRRTGFPNVTVAPDSSQGPIVVNQDPITQSIFNESVIEPQALNDVDGEEEGTVNSQSGESENENELDNSLNSQSNTNTDRFLQQLTEENFELISKLWTDIQQKIATQSQITPPGTPSSALSSGEQRAALNATNAVKRLQTRLQPEESTETLDSSYVVGHVLNSRKQKQLLNKVKRKPNLHALSKPKKNISSGSTTSADLPNRTNSNLDVLKHMIHEVEHEMEEYERWTGREVKGLQSSQGLTGFTLSLVSSLCRLVRYLKESEIQLRKEVETRQQLEQVLGDHRELIDALTAEILRLREENAATQARLQQYMVTTDEQLISLTHAIKNCPVINNRQEIQASESGATGRRVMDSPERPVVNANVSVPLMFREEVAEFPQEELPVKLSQVPDPPDNMNLAKNFPAHIFEPAVLLTPPRQKSNLKFSPLQDVLRRTVQTRPAPRLPPTVEIIEKEQNWEEKTLPIDTDIQNSSEENRLFTQRWRVSHMGEDLENKTQAPFVNLSQPLCNSHSNTQQSRSPTFSEELPVLGDGQQLRTNESLIQRKDIMTRIADLTLQNSAIKAHMNNIIEPRGEQGDGLRELNKQESASDMTSTFPVAQSLTPGSMEERIAELNRQSMEARGKLLQLIEQQKLVGLNLSPPMSPVQLPLRAWTEGAKRTIEVSIPGAEAPESSKCSTVSPVSGINTRRSSGATGNSCSPLNATSGSGRFTPLNPRAKIEKQNEEGWFALSTHVS
B5: the “IMAP Y2H IMAP1 (number of IST)” value in test [1] (HCV protein NS3 as bait) worked out at 1. The “Interaction with viral protein” value in test [2] is listed as “NS3”. The Y2H matrices result with HCV proteins (setting [3]) is “+”.

B6: SEPT10 (protein, UniProt Q9P0V9 1-454, looked up)
Septin-10: MASSEVARHLLFQSHMATKTTCMSSQGSDDEQIKRENIRSLTMSGHVGFESLPDQLVNRSIQQGFCFNILCVGETGIGKSTLIDTLFNTNFEDYESSHFCPNVKLKAQTYELQESNVQLKLTIVNTVGFGDQINKEESYQPIVDYIDAQFEAYLQEELKIKRSLFTYHDSRIHVCLYFISPTGHSLKTLDLLTMKNLDSKVNIIPVIAKADTVSKTELQKFKIKLMSELVSNGVQIYQFPTDDDTIAKVNAAMNGQLPFAVVGSMDEVKVGNKMVKARQYPWGVVQVENENHCDFVKLREMLICTNMEDLREQTHTRHYELYRRCKLEEMGFTDVGPENKPVSVQETYEAKRHEFHGERQRKEEEMKQMFVQRVKEKEAILKEAERELQAKFEHLKRLHQEERMKLEEKRRLLEEEIIAFSKKKATSEIFHSQSFLATGSNLRKDKDRKNSNFL
With B6, the “IMAP Y2H IMAP1 (number of IST)” value in test [1] (HCV protein NS3 as bait) came out at 1. Further, the Y2H matrices result with HCV proteins (setting [3]) was “+”.

B7: FXYD6 (protein, UniProt Q9H0Q3 19-95, looked up)
FXYD domain-containing ion …: SAAEKEKEMDPFHYDYQTLRIGGLVFAVVLFSVGILLILSRRCKCSFNQKPRAPGDEEAQVENLITANATEPQKAEN
With B7, in test [1] (HCV protein p7 as bait), the “IMAP Y2H IMAP1 (number of IST)” value stood at 1. Further, the Y2H matrices result in the test with HCV proteins (setting [4]) is listed as “+”.

B8: SMEK2 (protein, UniProt Q5MIZ7 1-849, looked up)
Serine/threonine-protein …: MSDTRRRVKVYTLNEDRQWDDRGTGHVSSTYVEELKGMSLLVRAESDGSLLLESKINPNTAYQKQQDTLIVWSEAENYDLALSFQEKAGCDEIWEKICQVQGKDPSVEVTQDLIDESEEERFEEMPETSHLIDLPTCELNKLEEIADLVTSVLSSPIRREKLALALENEGYIKKLLQLFQACENLENTEGLHHLYEIIRGILFLNKATLFEVMFSDECIMDVVGCLEYDPALAQPKRHREFLTKTAKFKEVIPITDSELRQKIHQTYRVQYIQDIILPTPSVFEENFLSTLTSFIFFNKVEIVSMLQEDEKFLSEVFAQLTDEATDDDKRRELVNFFKEFCAFSQTLQPQNRDAFFKTLAKLGILPALEIVMGMDDLQVRSAATDIFSYLVEFSPSMVREFVMQEAQQSDDDILLINVVIEQMICDTDPELGGAVQLMGLLRTLIDPENMLATTNKTEKSEFLNFFYNHCMHVLTAPLLTNTSEDKCEKDFFLKHYRYSWSFICTPSHSHSHSTPSSSISQDNIVGSNKNNTICPDNYQTAQLLALILELLTFCVEHHTYHIKNYIMNKDLLRRVLVLMNSKHTFLALCALRFMRRIIGLKDEFYNRYITKGNLFEPVINALLDNGTRYNLLNSAVIELFEFIRVEDIKSLTAHIVENFYKALESIEYVQTFKGLKTKYEQEKDRQNQKLNSVPSILRSNRFRRDAKALEEDEEMWFNEDEEEEGKAVVAPVEKPKPEDDFPDNYEKFMETKKAKESEDKENLPKRTSPGGFKFTFSHSASAANGTNSKSVVAQIPPATSNGSSSKTTNLPTSVTATKGSLVGLVDYPDDEEEDEEEESSPRKRPRLGS
For B8, the “IMAP Y2H IMAP1 (number of IST)” value in test [1] (HCV protein E2 as bait) was 1. For the same molecule, the Y2H matrices result with HCV proteins (validation of interaction with HCV protein E2) is “+”.
